Literature values in paper PMC10531495.
Where two headings read alike, the source gives them in different places.

Assays:
[1] = target: Aβ monomer (Homo sapiens) (UniProt P05067)
[2] = target: IAPP (Homo sapiens) (UniProt P10997)
[3] = target: IAPP (Homo sapiens) (UniProt P10997); remark: listed apart in the source
[4] = target: IAPP (Homo sapiens) (UniProt P10997); remark: listed apart in the source
[5] = target: IAPP (Homo sapiens) (UniProt P10997); remark: listed apart in the source

IAPP (Homo sapiens), sequence (P10997 32-73): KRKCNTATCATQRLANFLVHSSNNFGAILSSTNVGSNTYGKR
leucine enkephalin, sequence (P01210 whole entry, looked up): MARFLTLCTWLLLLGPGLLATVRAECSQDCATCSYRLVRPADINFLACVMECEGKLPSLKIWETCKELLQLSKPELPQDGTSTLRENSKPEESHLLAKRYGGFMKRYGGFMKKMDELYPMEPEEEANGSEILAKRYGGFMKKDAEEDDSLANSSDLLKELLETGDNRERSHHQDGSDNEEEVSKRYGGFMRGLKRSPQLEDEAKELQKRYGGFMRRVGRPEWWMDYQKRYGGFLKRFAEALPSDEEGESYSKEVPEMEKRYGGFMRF

Substance: leucine enkephalin (from UniProt P01210)
- Kd [1]: 60000 nM

Substance: Aβ(35–40) 35-40 (from UniProt P05067)
- Kd [2]: 354 nM

Substance: Aβ(25–35) 25-35 (from UniProt P05067)
- Kd [3]: 282 nM

Substance: Aβ(1–40) 1-40 (from UniProt P05067)
- Kd [4]: 48.5 nM

Substance: Aβ(29–40) 29-40 (from UniProt P05067)
- Kd [5]: 200 nM
